We go through four sequences from patent US10500249B2, “Compositions and methods for preventing or treating diseases, conditions, or processes characterized by aberrant fibroblast proliferation and extracellular matrix deposition” (MOERAE MATRIX, INC., priority 2014, dated 2019).

Holding throughout (assay): Kinase Profiling Assay
What all share (type): biochemical
What all share (conditions): 100 μM

In experiment [1] the target is T1, Fyn (h) (Homo sapiens, UniProt P06241).
T1 construct: purchased Millipore
In outline:
(§1)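 Specificity of MK2 inhibitory peptides is assessed against a panel of 266 human kinases. Kinase transfers a radiolabeled phosphate from ATP onto a positively charged substrate, which is trapped on a negatively charged filter and quantified by scintillation counting against full-activity control; duplicate determinations.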

Experiment [2] concerns the target T2, TSSK1 (h) (Homo sapiens, UniProt Q9BXA7).
T2 sequence (Q9BXA7 1-367): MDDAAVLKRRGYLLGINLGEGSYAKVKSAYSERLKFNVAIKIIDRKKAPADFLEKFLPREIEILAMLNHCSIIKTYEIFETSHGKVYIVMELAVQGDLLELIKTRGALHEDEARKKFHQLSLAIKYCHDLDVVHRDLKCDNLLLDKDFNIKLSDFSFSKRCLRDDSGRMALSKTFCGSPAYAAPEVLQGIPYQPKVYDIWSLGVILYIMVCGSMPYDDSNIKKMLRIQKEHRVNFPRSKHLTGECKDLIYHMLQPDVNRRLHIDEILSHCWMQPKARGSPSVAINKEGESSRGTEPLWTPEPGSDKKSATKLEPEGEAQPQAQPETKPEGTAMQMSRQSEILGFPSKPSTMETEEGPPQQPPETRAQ
In outline:
as §1

Experiment [3] addresses T3, PKCζ (h) (Homo sapiens, UniProt Q05513).
T3 sequence (Q05513 1-592): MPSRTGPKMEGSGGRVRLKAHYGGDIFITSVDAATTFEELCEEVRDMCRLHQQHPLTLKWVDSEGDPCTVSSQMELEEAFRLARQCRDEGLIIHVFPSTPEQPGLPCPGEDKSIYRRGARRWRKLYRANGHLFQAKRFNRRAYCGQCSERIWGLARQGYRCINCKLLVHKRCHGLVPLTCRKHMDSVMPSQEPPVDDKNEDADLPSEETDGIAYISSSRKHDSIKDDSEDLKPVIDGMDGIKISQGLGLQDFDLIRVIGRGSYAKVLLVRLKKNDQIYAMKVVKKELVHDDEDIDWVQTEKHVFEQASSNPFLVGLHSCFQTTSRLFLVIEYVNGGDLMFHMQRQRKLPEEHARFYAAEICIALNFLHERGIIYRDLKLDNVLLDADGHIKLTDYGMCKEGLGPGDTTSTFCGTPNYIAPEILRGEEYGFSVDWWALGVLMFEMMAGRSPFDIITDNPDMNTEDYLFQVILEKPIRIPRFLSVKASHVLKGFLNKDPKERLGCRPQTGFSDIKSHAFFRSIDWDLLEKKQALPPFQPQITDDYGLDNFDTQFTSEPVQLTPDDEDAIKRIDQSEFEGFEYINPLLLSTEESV
In outline: as §1

In experiment [4] the target is T4, IR (h) (Homo sapiens, UniProt P06213).
T4 construct: purchased Millipore
In outline: as §1

Experiment [5] addresses T5, MLK1 (h) (Homo sapiens, UniProt P80192).
T5 construct: purchased Millipore
In short, it runs like this:
as §1

Experiment [6] deals with MAPKAP-K2 (h) (Homo sapiens, UniProt P49137). In outline:
as §1

Experiment [7] has as its target T6, MKK6 (h) (Homo sapiens, UniProt P52564).
T6 construct: purchased Millipore
T6 sequence (P52564 1-334): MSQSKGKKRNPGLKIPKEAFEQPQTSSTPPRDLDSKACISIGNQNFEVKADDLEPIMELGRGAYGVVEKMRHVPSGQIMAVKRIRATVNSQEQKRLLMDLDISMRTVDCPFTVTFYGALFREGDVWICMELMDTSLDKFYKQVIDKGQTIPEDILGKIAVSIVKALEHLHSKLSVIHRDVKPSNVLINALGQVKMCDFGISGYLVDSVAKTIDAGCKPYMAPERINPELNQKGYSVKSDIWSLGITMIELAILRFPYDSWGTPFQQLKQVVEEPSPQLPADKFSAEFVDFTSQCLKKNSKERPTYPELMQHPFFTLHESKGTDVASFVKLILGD
In short, it runs like this: as §1

Experiment [8] addresses T7, CDK3/cyclinE (h) (Homo sapiens, UniProt Q00526).
T7 construct: purchased Millipore
In short, it runs like this:
as §1

In experiment [9] the target is T8, CDK1/cyclinB (h) (Homo sapiens, UniProt P06493).
T8 construct: purchased Millipore
In outline: as §1

Experiment [10] deals with T9, Pim-1 (h) (Homo sapiens, UniProt P11309).
T9 construct: purchased Millipore
In short, it runs like this:
as §1

Experiment [11] concerns the target Met(Y1248D) (h) (Homo sapiens, UniProt P08581, Y1230D). In outline: as §1

T7 sequence (Q00526 whole entry): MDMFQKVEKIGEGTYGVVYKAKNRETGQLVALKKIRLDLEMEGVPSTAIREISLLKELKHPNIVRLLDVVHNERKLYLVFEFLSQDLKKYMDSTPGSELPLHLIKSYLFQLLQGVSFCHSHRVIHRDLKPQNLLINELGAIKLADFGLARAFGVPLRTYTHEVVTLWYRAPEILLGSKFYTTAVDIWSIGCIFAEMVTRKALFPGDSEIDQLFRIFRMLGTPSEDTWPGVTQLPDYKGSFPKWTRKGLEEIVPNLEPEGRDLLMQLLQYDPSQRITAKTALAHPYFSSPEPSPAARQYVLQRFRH
T7 sequence (P24864 whole entry partner): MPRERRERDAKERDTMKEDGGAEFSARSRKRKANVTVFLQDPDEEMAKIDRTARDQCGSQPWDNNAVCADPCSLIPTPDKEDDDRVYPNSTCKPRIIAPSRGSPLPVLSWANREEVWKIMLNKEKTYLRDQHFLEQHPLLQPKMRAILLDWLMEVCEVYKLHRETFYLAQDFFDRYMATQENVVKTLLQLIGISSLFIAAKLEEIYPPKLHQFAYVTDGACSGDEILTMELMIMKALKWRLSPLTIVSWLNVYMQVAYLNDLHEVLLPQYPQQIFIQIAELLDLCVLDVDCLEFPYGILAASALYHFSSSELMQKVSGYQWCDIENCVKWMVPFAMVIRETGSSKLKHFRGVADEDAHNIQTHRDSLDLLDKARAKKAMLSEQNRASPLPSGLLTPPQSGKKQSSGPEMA
T1 sequence (P06241 whole entry): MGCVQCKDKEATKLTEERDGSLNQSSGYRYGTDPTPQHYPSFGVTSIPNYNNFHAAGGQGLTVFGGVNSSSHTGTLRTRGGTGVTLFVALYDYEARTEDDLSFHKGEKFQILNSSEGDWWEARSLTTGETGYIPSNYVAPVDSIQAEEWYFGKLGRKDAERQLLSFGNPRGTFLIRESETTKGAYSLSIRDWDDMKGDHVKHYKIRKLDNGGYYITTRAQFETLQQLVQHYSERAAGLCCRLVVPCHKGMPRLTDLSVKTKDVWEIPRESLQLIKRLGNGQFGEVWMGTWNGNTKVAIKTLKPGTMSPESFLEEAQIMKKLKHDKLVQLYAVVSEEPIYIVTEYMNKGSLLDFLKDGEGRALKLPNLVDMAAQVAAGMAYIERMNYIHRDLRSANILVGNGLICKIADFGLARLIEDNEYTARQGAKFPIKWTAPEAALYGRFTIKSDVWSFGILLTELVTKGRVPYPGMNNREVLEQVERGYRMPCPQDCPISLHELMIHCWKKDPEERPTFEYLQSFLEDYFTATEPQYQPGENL
T9 sequence (P11309 whole entry): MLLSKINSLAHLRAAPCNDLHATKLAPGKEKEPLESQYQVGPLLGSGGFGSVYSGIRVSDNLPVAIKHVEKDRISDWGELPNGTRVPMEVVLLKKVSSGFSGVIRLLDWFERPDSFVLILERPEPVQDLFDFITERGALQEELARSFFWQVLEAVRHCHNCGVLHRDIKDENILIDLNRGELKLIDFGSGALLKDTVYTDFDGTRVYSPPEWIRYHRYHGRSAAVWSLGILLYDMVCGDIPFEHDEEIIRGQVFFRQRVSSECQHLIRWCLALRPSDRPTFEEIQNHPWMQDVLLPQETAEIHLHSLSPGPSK
T5 sequence (P80192 whole entry): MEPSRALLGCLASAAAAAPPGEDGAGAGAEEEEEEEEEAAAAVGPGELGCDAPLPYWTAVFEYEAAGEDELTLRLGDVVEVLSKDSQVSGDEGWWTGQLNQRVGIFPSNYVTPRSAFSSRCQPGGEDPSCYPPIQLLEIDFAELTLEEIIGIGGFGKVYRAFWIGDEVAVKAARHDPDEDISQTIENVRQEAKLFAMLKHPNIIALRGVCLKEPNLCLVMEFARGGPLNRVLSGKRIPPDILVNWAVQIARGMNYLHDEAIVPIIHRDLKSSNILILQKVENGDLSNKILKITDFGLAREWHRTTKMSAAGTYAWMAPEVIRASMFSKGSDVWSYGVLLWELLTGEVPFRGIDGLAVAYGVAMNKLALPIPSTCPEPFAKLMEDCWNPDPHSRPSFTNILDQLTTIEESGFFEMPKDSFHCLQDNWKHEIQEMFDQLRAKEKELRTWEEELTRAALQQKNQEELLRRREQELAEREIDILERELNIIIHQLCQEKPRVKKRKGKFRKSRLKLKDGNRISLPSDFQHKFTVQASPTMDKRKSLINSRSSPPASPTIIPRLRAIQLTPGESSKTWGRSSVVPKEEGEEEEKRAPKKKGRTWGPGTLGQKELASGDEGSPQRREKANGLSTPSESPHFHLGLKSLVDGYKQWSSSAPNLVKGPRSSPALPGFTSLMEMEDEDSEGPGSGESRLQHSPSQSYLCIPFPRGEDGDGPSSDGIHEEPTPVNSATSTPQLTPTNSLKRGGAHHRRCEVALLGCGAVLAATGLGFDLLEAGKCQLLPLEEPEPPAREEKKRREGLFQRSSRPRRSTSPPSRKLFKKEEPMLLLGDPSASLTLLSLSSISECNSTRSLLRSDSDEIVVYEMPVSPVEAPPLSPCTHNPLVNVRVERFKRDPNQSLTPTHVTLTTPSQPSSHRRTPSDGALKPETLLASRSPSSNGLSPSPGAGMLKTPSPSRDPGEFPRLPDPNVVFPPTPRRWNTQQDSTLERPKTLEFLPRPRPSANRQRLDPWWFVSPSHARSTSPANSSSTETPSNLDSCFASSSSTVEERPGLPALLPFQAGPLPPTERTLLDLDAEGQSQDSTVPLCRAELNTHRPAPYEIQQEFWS
T8 sequence (P06493 whole entry): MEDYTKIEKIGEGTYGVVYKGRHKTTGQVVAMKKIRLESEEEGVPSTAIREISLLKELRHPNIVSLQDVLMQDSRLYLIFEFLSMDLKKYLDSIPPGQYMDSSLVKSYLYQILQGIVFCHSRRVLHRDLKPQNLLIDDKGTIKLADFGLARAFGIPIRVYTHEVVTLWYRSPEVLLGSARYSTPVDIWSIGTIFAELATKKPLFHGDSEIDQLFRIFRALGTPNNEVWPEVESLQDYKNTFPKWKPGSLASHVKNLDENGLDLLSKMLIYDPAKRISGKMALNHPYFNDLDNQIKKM
T8 sequence (P14635 whole entry partner): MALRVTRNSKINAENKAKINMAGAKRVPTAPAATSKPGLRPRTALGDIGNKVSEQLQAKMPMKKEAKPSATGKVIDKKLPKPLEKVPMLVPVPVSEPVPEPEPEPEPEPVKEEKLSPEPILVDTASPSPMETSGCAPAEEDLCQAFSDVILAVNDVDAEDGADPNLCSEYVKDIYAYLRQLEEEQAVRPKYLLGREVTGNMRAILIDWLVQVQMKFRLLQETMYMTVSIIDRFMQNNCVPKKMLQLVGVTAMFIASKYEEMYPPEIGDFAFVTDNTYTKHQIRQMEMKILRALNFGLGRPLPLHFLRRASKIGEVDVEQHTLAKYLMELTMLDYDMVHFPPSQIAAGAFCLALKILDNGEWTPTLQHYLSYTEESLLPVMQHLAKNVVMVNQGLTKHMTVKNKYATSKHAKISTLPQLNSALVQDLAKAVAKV
MAPKAP-K2 (h), sequence (P49137 whole entry): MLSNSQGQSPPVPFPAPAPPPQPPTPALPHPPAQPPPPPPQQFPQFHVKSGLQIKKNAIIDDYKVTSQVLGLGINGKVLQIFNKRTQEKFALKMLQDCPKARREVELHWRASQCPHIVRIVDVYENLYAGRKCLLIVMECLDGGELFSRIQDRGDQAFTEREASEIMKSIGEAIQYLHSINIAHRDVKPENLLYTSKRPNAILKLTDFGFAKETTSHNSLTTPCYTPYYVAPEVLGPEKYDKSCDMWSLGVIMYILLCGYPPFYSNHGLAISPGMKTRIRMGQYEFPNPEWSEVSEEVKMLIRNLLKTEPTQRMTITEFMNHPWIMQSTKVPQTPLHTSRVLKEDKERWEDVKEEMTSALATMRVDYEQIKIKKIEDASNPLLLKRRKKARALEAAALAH

Consider KAFAKLAARLYRKALARQLGVAA [MMI-0400], for which the “% activity” value in experiment [1] came out at 54%; in [2] it was 79%; in experiment [3], 75%; in experiment [4] it was 85%; in experiment [5] it was 33%; in experiment [6], 5%. The “% activity” value in experiment [7] is 44%; in [8], 92%; in experiment [9], 74%; in [10], 7%; in experiment [11], 31%.
As to “YARAAARQARAKALNRQLGVA (Mammalian) [MMI-0200]”, the “% activity” value in experiment [1] was found to be 75%; in [2], 98%; in [3], 98%; in experiment [4], 90%; in experiment [5], 84%; in [6] it was 35%. Also, the “% activity” value in experiment [7] is given as 98%; in experiment [10], 18%; in experiment [11], 118%.
Take “HRRIKAWLKKIKALARQLGVAA (Mammalian) [MMI-0500]”: the “% activity” value in experiment [1] is 83%; in experiment [2], 46%; in [3] it was 7%; in [4], 95%; in experiment [5], 43%; in experiment [6], 9%. The “% activity” value in experiment [7] was 18%; in [8], 8%; in [9], 57%; in experiment [10], 0%; in experiment [11], 218%.
For FAKLAARLYRKALARQLGVAA [MMI-0300], the “% activity” value was 74% in experiment [1]; 79% in experiment [2]; 81% in experiment [3]; 96% in experiment [4]; 40% in [5]; 5% in experiment [6]. In addition, the “% activity” value in experiment [7] was found to be 48%; in experiment [8] it was 94%; in [9] it was 73%; in experiment [10] it was 8%.
